The series can be described thus: protein stability index of a GFP-peptide fusion (GPS, HEK-293T) (PSI 1-6); higher = more stable.
Setting [1] is: treatment: DMSO, c terminus: a fixed tail appended.
Where [2] appears, read: treatment: MLN4924 1 uM, 8 h, c terminus: a fixed tail appended.

± gives the standard deviation.
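Also: 24-mer peptide tiles fused after GFP, lentivirally expressed, FACS-sorted into six equal bins by GFP/DsRed ratio, decoded by Illumina sequencing, PSI is the read-weighted mean bin number.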

LQRHADEFLLDLGHHERSIMTDLY [FUT8] displayed a protein stability index under setting [1] of 2.55 ± 0.21 and a protein stability index under setting [2] of 2.69 ± 0.26. Consider LQRLRENAAHLGDKRRDLAHLAAE [TRIM39], for which the protein stability index was 4.13 ± 0.31 under setting [1] and 3.82 ± 0.28 under setting [2]. Take LQSEPHRAGVQWKFAGSFYFAITV [KCNK9]: the protein stability index under setting [1] stood at 3.47 ± 0.43 and the protein stability index under setting [2] was found to be 2.82 ± 0.81. For LQYILAQIGFSVGLGNIWRFPYLC [SLC6A17], in that order: 2.27 ± 0.16 and 2.88 ± 0.31. In the same order, the values of LRALREKLFAHSSDLLSEFKKHDA [PPEF2] are 2.1 ± 0.33 and 2.29 ± 0.42. With LRRRLEELQQELSLKDQERVAEVS [LRRC45], the protein stability index reads like this: under setting [1], 4.07 ± 0.42; under setting [2], 3.89 ± 0.32. With LSLCICGTAITSQYLAERYKVNTP [SLC35F2], the protein stability index runs as follows: under setting [1], 2.83 ± 0.51; under setting [2], 2.63 ± 0.42. For the sequence LSLLDNNIPGNSTLITAVELERFV [FBXO33], the protein stability index was 2.44 ± 0.95 under setting [1] and 2.36 ± 0.15 under setting [2]. Turning to LSLPYLPSGTPELEVPKPGQPSEP [CHIT1], the protein stability index is, setting by setting: under setting [1], 5.09 ± 0.22; under setting [2], 5.21 ± 0.15. As for LSPPEQAAQPMQPLPESLASLHPS [PLAGL1], the protein stability index reads like this: under setting [1], 5.12 ± 0.16; under setting [2], 4.93 ± 0.31. In the same order, the values of LSPVLESPRDLQFSEIRETSAKVN [TNXB] are 4.9 ± 0.12 and 5.02 ± 0.34. For LSQLSSHDPLWRRHCKKYWLISEE [FBXO3], in that order: 2.54 ± 0.069 and 2.67 ± 0.4.

LSRTNEELLWKLQTGDPTSPIKLS [MTUS2]: the protein stability index under setting [1] was 3.49 ± 0.12 and the protein stability index under setting [2] is 3.35 ± 0.25. In the same order, the values of LSTNDKTIKLWKITERDKRPEGYN [PPP2R2C] are 3.6 ± 0.28 and 3.79 ± 0.61. For LSWLVWLLLLLLASLLPSARLASP [ADAMTS4], the protein stability index runs as follows: under setting [1], 2.99 ± 0.65; under setting [2], 2.5 ± 0.3. As to LTGVLCSYPNPNEDKCPGNYTNPL [TMEM192], the protein stability index runs as follows: under setting [1], 3.26 ± 0.19; under setting [2], 3.36 ± 0.25. LTRAGMSYYNSPGLHVQHMGTSHG [CCDC6]: the protein stability index under setting [1] is 2.67 ± 0.2 and the protein stability index under setting [2] is 2.81 ± 0.12. In the same order, the values of LVPKTHLMSESEWRNLGVQQSQGW [CKS1B] are 2.64 ± 0.32 and 2.86 ± 0.2. In the same order, the values of LVSVYPDKYCPLLIKEGGMPLLRD [ZER1] are 2.38 ± 0.23 and 2.42 ± 0.29. In the same order, the values of LYKALGAQDLTEAEGWHFFCFQGE [SAT2] are 2.5 ± 0.27 and 2.29 ± 0.43. Turning to MAAAAEERMAEEGGGGQGDGGSSL [FBXO28], the protein stability index under setting [1] was 5.45 ± 0.29 and the protein stability index under setting [2] stood at 5.57 ± 0.33. In turn, MAAGNTVIAKPSELTSVTAWMLCK [ALDH8A1] yielded a protein stability index under setting [1] of 2.44 ± 0.1 and a protein stability index under setting [2] of 2.35 ± 0.23.

With MASPPRCSPTAHDRECKLPPPSAP [WDR88], the protein stability index was found to be 4.67 ± 0.25 under setting [1] and 4.83 ± 0.24 under setting [2].

On to MATYLRYVRRLDFFEKPDYDYLRK [CSNK1G3], for which the protein stability index is 2.31 ± 0.42 under setting [1] and 2.32 ± 0.12 under setting [2]. For MCFGPKKVKPAEAETAGAIMAFFL [SLC29A1], in that order: 2.42 ± 0.45 and 2.13 ± 0.21. MDSFKVVLEGPAPWGFRLQGGKDF [PDLIM7]: the protein stability index runs as follows: under setting [1], 2.1 ± 0.24; under setting [2], 2.52 ± 0.23. In the case of MEHALREKAKAFWAMRRSYEAIAK [TRIM35], the protein stability index is, setting by setting: under setting [1], 2.46 ± 0.12; under setting [2], 2.59 ± 0.45.

With MEKFREDEGFIKEEERPLPEKEYQ [KCNA1], the protein stability index is 5.38 ± 0.32 under setting [1] and 5.53 ± 0.31 under setting [2]. With MERPLCSHLCSCLAMLALLSPLSL [LOXL2], the protein stability index amounted to 3.16 ± 0.19 under setting [1] and 3.46 ± 0.36 under setting [2]. For MHLKPYWKLQKKEHPPEVSRETQR [FBXO34], in that order: 3.58 ± 0.18 and 3.78 ± 0.33. In the same order, the values of MIPGFRDLTSEDQIVLLKSSAIEV [VDR] are 2.33 ± 0.25 and 2.43 ± 0.18. MKIFREKIEDFREEMWTFRGKIHA [CCDC70] registered a protein stability index under setting [1] of 2.07 ± 0.26 and a protein stability index under setting [2] of 2.39 ± 0.43. As for MKSCKNLKGGLQEVAEQLELERIG [CNOT7], the protein stability index is, setting by setting: under setting [1], 4.39 ± 0.14; under setting [2], 4.47 ± 0.18.

MLIEELYAFMPARSQDPKKPSRV [CBY2]: the protein stability index runs as follows: (treatment: DMSO, c terminus: native) 2.57 ± 0.46; (treatment: MLN4924 1 uM, 8 h, c terminus: native) 2.55 ± 0.17. For the sequence MLTLPFDESVVMPESQMCRKFSRE [NEUROD6], the protein stability index reads like this: under setting [1], 3.65 ± 0.15; under setting [2], 3.77 ± 0.15. In the same order, the values of MMCVAERTYKQRFLFAKLFSHITS [PHTF1] are 1.79 ± 0.71 and 2.24 ± 0.47. For MMHGLKPLSLVKRTDLKDLIIFDK [CEP70], in that order: 2.37 ± 0.12 and 2.92 ± 0.47. In the same order, the values of MNELQHDLDVVSDALAKVSRKPSI [TPH1] are 4.27 ± 0.22 and 4.42 ± 0.32.

In the case of MNHFTVNLNREEKIIREIDFYRED [TRIM55], the protein stability index reads like this: under setting [1], 3.46 ± 0.4; under setting [2], 3.61 ± 0.33. In the same order, the values of MNTNSKEVLSLGVQVPEAWEELLT [ZSCAN9] are 3.08 ± 0.47 and 3.52 ± 0.34. Consider MQALEIELQSQLSMKASLEGNLAE [KRT17], for which the protein stability index amounted to 3.59 ± 0.19 under setting [1] and 3.45 ± 0.42 under setting [2]. For MRKGNTMQQFLQKALEILRKDFSE [FAM50A], in that order: 3.09 ± 0.59 and 2.89 ± 0.46. Sequence MRSPQNLHSQEDDDSSSESGSGNG [NOL4L] displayed a protein stability index under setting [1] of 5.64 ± 0.21 and a protein stability index under setting [2] of 5.51 ± 0.16. For MSDSTWMSADPHLASSLSPSQDER [NOL4L], in that order: 5.31 ± 0.19 and 5.18 ± 0.28. With MSGKSPVESSLNVKTKKNAPSATI [FBXO34], the protein stability index turned out to be 4.5 ± 0.22 under setting [1] and 4.6 ± 0.12 under setting [2]. For MTGLALKHMFERSFTQGEGARPLS [MATN2], the protein stability index reads like this: under setting [1], 2.69 ± 0.28; under setting [2], 2.93 ± 0.42.

For the sequence MTMQFISHRFPEDHDPTIEDAYKI [RIT1], the protein stability index under setting [1] was found to be 3.24 ± 0.15 and the protein stability index under setting [2] was 3.36 ± 0.22.

With MVHVARLLLLLLTFFLRTDAETPP [PTPRD], the protein stability index runs as follows: under setting [1], 2.91 ± 0.44; under setting [2], 2.95 ± 0.44. For MVKPLLHMLLNTTLNIKETDSKEL [ZBED1], the protein stability index reads like this: under setting [1], 2.13 ± 0.58; under setting [2], 2.24 ± 0.38. With MVQVACGASHVLALSTERELFAWG [NEK8], the protein stability index runs as follows: under setting [1], 2.59 ± 1.1; under setting [2], 2.32 ± 0.84.

In the case of NAPNSLGVSALCAICGDRATGKHY [HNF4A], the protein stability index worked out at 2.84 ± 0.12 under setting [1] and 3.2 ± 0.15 under setting [2].

For NAYHIERLMSFRPICSANHKESKM [CRYBA1], the protein stability index stood at 3.12 ± 0.16 under setting [1] and 3.29 ± 0.12 under setting [2].

Turning to NCCLTLCNFSIPEELEFQYRRVNE [ZER1], the protein stability index turned out to be 2.55 ± 0.33 under setting [1] and 2.55 ± 0.14 under setting [2]. In the same order, the values of NCGLEEKIANLGSCNDSKLEFRSF [S100A14] are 2.25 ± 0.68 and 2.82 ± 1.2. In the same order, the values of NDPEKNFLTTAIRPHGIFGPRDPQ [NSDHL] are 4.24 ± 0.3 and 4.24 ± 0.29.

NDVRQAARSAASYMLFDPKDSVMQ [P3H4]: the protein stability index came out at 3.97 ± 0.12 under setting [1] and 4.08 ± 0.39 under setting [2]. For NEARHNFGIVEIDGMLYILGGEDG [GAN], in that order: 2.63 ± 0.37 and 2.72 ± 0.4. For NEQVLTTEHEKKQKLETDAMFRLE [YJU2B], in that order: 5.43 ± 0.15 and 5.43 ± 0.19. For the sequence NFSIVPYEKKFDTFIPLEPLPQIP [SPATS1], the protein stability index came to 3.04 ± 0.33 under setting [1] and 2.97 ± 0.34 under setting [2]. For NFSKKIQQIHVVSQFKILVSLLEN [VPS39], in that order: 2.64 ± 0.39 and 2.81 ± 0.66. Take NIEDYFSHHLAVYNSPQFKKTMST [FBXO39]: the protein stability index by setting is: under setting [1], 2.75 ± 0.28; under setting [2], 2.71 ± 0.12.

In the case of NIMNKEAFMNQEITKAFHVRKANR [RHOBTB1], the protein stability index is 3.35 ± 0.18 under setting [1] and 3.45 ± 0.34 under setting [2]. For NITINIVDDHTPWVKGSVPPPLDQ [CLPTM1], in that order: 2.83 ± 0.28 and 2.77 ± 0.34.

NKVLVCPMKSAPVMLTLSDSKHVV [RBBP5] registered a protein stability index under setting [1] of 2.57 ± 0.25 and a protein stability index under setting [2] of 2.75 ± 0.19. For NKYDNTCLMIAAYKGHTDVVRYLL [FEM1B], in that order: 2.44 ± 0.66 and 2.31 ± 0.29. For the sequence NLETNEWRYVSSLPQPLAAHAGAV [KLHL14], the protein stability index under setting [1] was determined as 2.64 ± 0.36 and the protein stability index under setting [2] turned out to be 2.87 ± 0.37. In the same order, the values of NPELIKPKKLLNPVKASRSHQELH [FAM107A] are 4.21 ± 0.16 and 4.24 ± 0.26.

NRDLRKASVTIQARAEQEEEFISN [CCDC6]: the protein stability index was determined as 4.96 ± 0.26 under setting [1] and 5.05 ± 0.27 under setting [2]. As for NRKSILSRHLNSQVKKTTTRWCHI [PHTF1], the protein stability index under setting [1] came to 2.57 ± 0.55 and the protein stability index under setting [2] is 2.57 ± 0.39. For NRLSELEVANKDLTERKYKGDSTI [SASS6], in that order: 4.71 ± 0.38 and 4.96 ± 0.38.

In turn, NRLSIGLQSLDDTELRLLGRTHSA [RSAD1] came in with a protein stability index under setting [1] of 3.77 ± 0.22 and a protein stability index under setting [2] of 3.79 ± 0.28. Under setting [2], NSLEGGTDATAFWWGEWTKWTACS [ADAMTSL2] came in with a protein stability index of 3.25 ± 0.35.
